According to paper PMC10516654, “Structural and functional characterization of MrpR, the master repressor of the Bacillus subtilis prophage SPβ”:
Residue numbers refer to the chain shown, from its start.

Assays:
Assay in all cases: ITC; ITC: 20 mM HEPES-Na pH 7.5, 200 mM NaCl, 20 mM KCl, 25 C, 20 uM DNA in cell, protein in syringe, one set of sites; EMSA: same buffer plus 50 ug/ml herring sperm DNA, 50 nM DNA, RT 15 min, 6% native PAGE 0.5x TBE
Conditions in all cases: protein: recombinant; tags: C-terminal His6; blunt
MrpR K169A = biological target: T1, MrpR K169A (Bacillus subtilis prophage SPβ, UniProt O34558 1-325, K169A)
T1 sequence: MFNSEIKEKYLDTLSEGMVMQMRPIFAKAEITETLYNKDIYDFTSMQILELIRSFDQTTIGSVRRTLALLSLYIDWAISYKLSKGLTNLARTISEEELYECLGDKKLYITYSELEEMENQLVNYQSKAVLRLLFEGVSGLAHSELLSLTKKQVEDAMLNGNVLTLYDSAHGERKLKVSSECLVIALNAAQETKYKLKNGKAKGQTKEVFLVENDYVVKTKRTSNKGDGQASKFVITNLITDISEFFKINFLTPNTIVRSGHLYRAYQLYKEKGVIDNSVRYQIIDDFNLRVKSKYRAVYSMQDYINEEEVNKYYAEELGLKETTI

MrpR Y304F = biological target: T2, MrpR Y304F (Bacillus subtilis prophage SPβ, UniProt O34558 1-325, Y304F)
T2 sequence: T1 sequence with A169K, Y304F

MrpR G136E = biological target: T3, MrpR G136E (Bacillus subtilis prophage SPβ c2, UniProt O34558 1-325, G136E)
T3 sequence: T1 sequence with G136E, A169K

B1: aimR promoter ITC duplex (LC292/LC293) (dsDNA)
DNA 1: GAATTTTAAAGAGATTACAAATACAAAAAATATGTATAAAATAATTGACTCGTAATG
DNA 2: CATTACGAGTCAATTATTTTATACATATTTTTTGTATTTGTAATCTCTTTAAAATTC
- Kd (MrpR K169A): 346 ± 150 nM
- Kd (MrpR Y304F): 1340 ± 500 nM
- Kd (MrpR G136E): 1690 ± 690 nM
